US20050042220A1 (GENETICS INSTITUTE, published 2005)

Columns and labels:
[1] = target: T1, human IL-22R extracellular domain-Fc fusion homodimer (human, UniProt Q8N6P7 16-228); assay: sandwich ELISA: rabbit anti-hIL-22R coat, 1:1 mixture of IL-22R-Fc and IL-10R2-Fc media titrated, biotinylated goat anti-hIL-10R2 then streptavidin-HRP, A450
T1 construct: extracellular domain; Used as CHO conditioned medium, not purified; also called IL-22R-Fc; IL-22RECD-Fc; not shown: human IgG1 Fc
T1 sequence: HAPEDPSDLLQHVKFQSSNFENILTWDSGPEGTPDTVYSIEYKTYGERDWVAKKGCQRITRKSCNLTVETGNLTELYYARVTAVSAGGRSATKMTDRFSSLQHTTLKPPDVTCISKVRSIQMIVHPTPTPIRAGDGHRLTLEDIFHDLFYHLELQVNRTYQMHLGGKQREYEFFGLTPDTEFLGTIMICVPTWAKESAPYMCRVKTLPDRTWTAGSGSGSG
Method: Monomeric IL-22RECD-Fc and IL-10R2ECD-Fc fusions were determined to have molecular weights of ˜60 kD and ˜85 kD, respectively. Reduced and non-reduced conditioned media (CM) from CHO cells expressing either or both receptor Fc fusions was separated on SDS-PAGE gels and blotted to a membrane which was then probed with polyclonal antibodies directed against either human IgG Fc, IL-22R or IL-10R2. More specifically, in FIG. 7A, conditioned media from CHO cells expressing either IL-22R-Fc, IL-10R2-Fc or both receptor Fc were separated on 8% polyacyrlamide gels under both reduced (+βME) and non-reduced (−βME) conditions and transferred to membrane blots. Western blots were carried out using any of anti-human IgG1, anti-hIL-22R or anti-hIL-10R2 antibodies. For anti-hIgG detection of a blot, 4 ng total Fc fusion in CM was loaded in each lane. For anti-IL-22R and anti-IL-10R2 antibody detection, 16 ng total Fc fusion in CM from co-expressing CHO was used. […] The bound receptors were detected using a biotinylated goat anti-human IL-10R2 antibody, followed by streptavidin-HRP.
The presence of heterodimers in the CM from CHO cells was verified by sandwich ELISA, using antibodies specific for each chain of the heterodimer. Conditioned media was added to wells coated with an IL-22R polyclonal antibody and bound protein was then detected with a biotinylated IL-10R2 polyclonal antibody. […]

[2] = target: T2, human IL-22 binding protein-Fc fusion (human, UniProt Q969J5-2 22-231, limits assumed); assay: BIAcore, Fc fusion from conditioned medium captured by anti-human IgG, IL-22 injected, 1:1 model
T2 construct: Fc fusion homodimer, used as CHO conditioned medium; also called IL-22BP-Fc; huIL22BP-huFc; not shown: human IgG1 Fc
T2 sequence: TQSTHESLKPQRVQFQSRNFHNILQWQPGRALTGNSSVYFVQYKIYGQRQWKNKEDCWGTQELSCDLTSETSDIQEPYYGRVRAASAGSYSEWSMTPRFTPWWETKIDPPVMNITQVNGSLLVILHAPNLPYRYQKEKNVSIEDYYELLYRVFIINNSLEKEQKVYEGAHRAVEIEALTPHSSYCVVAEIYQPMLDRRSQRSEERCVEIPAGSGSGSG
Method: (§1) The surface was activated with EDC/NHS. The capturing antibody was injected at a concentration of 50 ug/ml in sodium acetate buffer (pH 4.5), the Protein-A was injected at a concentration of 50 ug/ml in sodium acetate buffer (pH 4.0), or test protein was directly injected at a concentration of 0.01-1 ug/ml in sodium acetate buffer (pH 5.0). The immobilization was done using the wizard tools with aim of 10.000 resonance units (RUs) for the anti-hu or anti-rat IgG, 3000 (RUs) for the Protein-A and […] (RUs) for the directly immobilized testing protein. Remaining activated groups were blocked with 1.0 M ethanolamine (pH 8.0). As control the first flow cell was used as reference surface to correct for bulk refractive index, matrix effects and non-specific binding, the second, third and four flow cells were coated with the capturing molecule.
(§2) For kinetic analysis, condition media containing IL-22R-Fc, IL-10R2-Fc, IL-22R-Fc/IL-10R2-Fc receptor complex or IL-22BP-Fc protein were captured onto the anti-human IgG antibody or protein A surfaces. The rat antibodies were captured onto the anti-rat IgG antibody surface, by injecting 60 ul of a 400 ng/ml solution. […] The dissociation phase was monitored in HBS/EP buffer for 10 minutes at the same flow rate followed by 5 ul injection of 0.1% TFA and 5 ul injection of glycine pH 1.5 to regenerate a fully active capturing surface. […]

[3] = target: T3, IL-22R-Fc/IL-10R2-Fc heterodimer from co-expressing CHO cells (human, UniProt Q8N6P7 16-228; Q08334 20-220); assay: BIAcore, receptor-Fc from conditioned medium captured by anti-human IgG, IL-22 injected, 1:1 model
T3 construct: extracellular domain; also called IL-22R/IL-10R2-Fc heterodimer; IL-22R-Fc/IL-10R2-Fc complex; not shown: human IgG1 Fc
T3 sequence 1: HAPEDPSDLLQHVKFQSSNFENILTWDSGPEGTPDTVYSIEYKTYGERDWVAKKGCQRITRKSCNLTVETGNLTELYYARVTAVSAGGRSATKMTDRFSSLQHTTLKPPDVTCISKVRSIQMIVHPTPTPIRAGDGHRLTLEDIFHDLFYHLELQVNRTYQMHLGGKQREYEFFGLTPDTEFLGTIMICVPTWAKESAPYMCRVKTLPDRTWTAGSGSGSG
T3 sequence 2: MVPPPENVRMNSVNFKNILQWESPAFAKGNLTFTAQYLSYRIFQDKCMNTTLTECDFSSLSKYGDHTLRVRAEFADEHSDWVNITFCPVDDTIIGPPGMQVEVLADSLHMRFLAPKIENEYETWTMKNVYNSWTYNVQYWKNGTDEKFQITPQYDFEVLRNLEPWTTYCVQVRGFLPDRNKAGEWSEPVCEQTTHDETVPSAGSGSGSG
Method: as §1, §2

[4] = target: T1, human IL-22R extracellular domain-Fc …; assay: as above
Method: as §1, §2

B1: human IL-10R2 extracellular domain-Fc fusion homodimer (Fc fusion)
chain: MVPPPENVRMNSVNFKNILQWESPAFAKGNLTFTAQYLSYRIFQDKCMNTTLTECDFSSLSKYGDHTLRVRAEFADEHSDWVNITFCPVDDTIIGPPGMQVEVLADSLHMRFLAPKIENEYETWTMKNVYNSWTYNVQYWKNGTDEKFQITPQYDFEVLRNLEPWTTYCVQVRGFLPDRNKAGEWSEPVCEQTTHDETVPSAGSGSGSG
notes: extracellular domain; Used as CHO conditioned medium, not purified; also called IL-10R2-Fc; IL-10R2ECD-Fc; not shown: human IgG1 Fc
- binding result [1]: no binding (tested: 100 ng/ml total Fc fusion)

B2: N terminal His/Flag tagged human IL-22 (ligand)
chain: GSGHHHHHHGSGDYKDDDDKAPISSHCRLDKSNFQQPYITNRTFMLAKEASLADNNTDVRLIGEKLFHGVSMSERCYLMKQVLNFTLEEVLFPQSDRFQPYMQEVVPFLARLSNRLSTCHIEGDDLHIQRNVQKLKDTVKKLGESGEIKAIGELDLLFMSLRNACI
notes: Made in CHO cells, extensively N-glycosylated; also called human h/f tagged IL-22; hIL-22
- Kd [2]: 3.37 nM
- Kd [3]: 1.48 nM
- Kd [4]: 41 nM
